Target: T1, insoluble fibrin (fibrin plate, fibrin clot or tissue fibrin; species not stated for the experiment) (Homo sapiens (Human), UniProt P02671 36-630; P02675 45-491; P02679 27-433, Insoluble polymer of (alpha-beta-gamma)2 fibrin monomers, disulfide-bridged and possibly cross-linked by factor XIII. The letters give one copy of each chain only.)
T1 sequence (alpha): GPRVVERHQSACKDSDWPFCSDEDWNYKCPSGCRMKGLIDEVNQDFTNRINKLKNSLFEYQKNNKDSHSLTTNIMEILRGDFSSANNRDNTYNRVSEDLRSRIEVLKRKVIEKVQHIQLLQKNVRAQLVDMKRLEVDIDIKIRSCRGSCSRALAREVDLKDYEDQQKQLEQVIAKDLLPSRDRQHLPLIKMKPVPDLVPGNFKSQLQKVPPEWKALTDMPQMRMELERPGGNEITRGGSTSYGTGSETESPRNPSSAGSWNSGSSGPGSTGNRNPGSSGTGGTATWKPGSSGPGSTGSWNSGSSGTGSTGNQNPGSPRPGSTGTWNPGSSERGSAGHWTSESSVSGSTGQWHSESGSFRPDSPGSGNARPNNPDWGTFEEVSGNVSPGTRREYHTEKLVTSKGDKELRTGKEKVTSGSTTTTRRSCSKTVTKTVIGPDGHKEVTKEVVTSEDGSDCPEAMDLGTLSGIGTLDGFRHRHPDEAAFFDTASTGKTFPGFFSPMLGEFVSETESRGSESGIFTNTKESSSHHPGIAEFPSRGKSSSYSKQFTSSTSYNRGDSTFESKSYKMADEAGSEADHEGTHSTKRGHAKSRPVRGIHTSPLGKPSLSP
T1 sequence (beta): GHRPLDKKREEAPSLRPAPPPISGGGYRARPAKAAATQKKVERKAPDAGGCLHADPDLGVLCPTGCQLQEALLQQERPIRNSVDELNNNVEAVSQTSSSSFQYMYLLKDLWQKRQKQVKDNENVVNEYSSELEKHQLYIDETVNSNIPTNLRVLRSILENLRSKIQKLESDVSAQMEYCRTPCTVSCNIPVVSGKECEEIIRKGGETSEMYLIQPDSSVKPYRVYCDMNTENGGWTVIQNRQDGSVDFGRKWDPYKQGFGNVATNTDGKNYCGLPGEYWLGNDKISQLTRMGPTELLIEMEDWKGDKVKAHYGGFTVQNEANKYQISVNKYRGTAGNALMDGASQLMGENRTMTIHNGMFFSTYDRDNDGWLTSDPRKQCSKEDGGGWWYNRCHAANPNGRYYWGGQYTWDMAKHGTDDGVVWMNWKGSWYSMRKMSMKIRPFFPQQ
T1 sequence (gamma): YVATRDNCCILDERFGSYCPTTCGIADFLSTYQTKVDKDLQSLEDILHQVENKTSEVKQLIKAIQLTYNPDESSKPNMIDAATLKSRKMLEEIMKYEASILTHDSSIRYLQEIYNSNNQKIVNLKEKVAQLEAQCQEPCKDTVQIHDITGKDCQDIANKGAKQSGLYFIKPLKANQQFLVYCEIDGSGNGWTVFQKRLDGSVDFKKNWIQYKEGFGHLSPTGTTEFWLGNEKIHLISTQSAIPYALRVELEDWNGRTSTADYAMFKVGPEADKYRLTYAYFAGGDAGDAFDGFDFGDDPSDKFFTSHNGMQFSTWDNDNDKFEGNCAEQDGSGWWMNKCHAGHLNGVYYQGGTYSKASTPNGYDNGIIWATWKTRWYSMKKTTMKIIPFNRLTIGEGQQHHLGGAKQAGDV
Test: ELISA, fibrin plate against fibrinogen plate, antibody at 10 µg/mL, absorbance at 492 nm
Experimental: Each of the antibody solutions (100 μL each) at 10 μg/mL was added to the fibrin plate and the fibrinogen plate, and allowed to stand at room temperature for 1 hour. After washing with TBS-T, Bethyl Anti-Human IgG-HRP (×1000 dilution) or Bethyl Anti-Mouse IgG-HRP (×10000 dilution) was added as a secondary antibody. Then, after washing with TBS-T, colorimetry was conducted with OPD for 10 minutes, and measurement was conducted at an absorption wavelength of 492 nm.

ratio of the affinity for insoluble fibrin to the affinity for fibrinogen (absorbance at 492 nm): 13 times
B1: Fib-0355 antibody (monoclonal antibody produced by hybridoma Fib-0355) (antibody, V domains shown)
VH: GPELKKPGETVKISCKASGYTFTNYGMNWVKQAPGKGLKWMGWINTNTGEPTYAEEFKGRFAFSLETSASTAYLQINNLKNEDTATYFCARLLDYWGQGTTLTVSS
VL: PSSLAVSAGEKVTMSCKSSQSVLYSSNQKNYLAWYQQKPGQSPKLLIYWASTRESGVPDRFTGSGSGTDFTLTISSVQAEDLAVYYCQQYLSSYTFGG
notes: Mouse hybridoma monoclonal antibody, detected with anti-mouse IgG-HRP; also called anti-β chain antibody

From patent US20160011217A1 (NATIONAL CANCER CENTER, published 2016)
